In patent publication US20150183856A1 (ABLBIO, published 2015):

Tests used:
[1] = molecular target: T1, human DLL4 stably expressed on HEK 293 cells (human, UniProt Q9NR61 27-685); test: flow cytometry on HEK293 cells stably expressing human DLL4, 10 ug antibody
T1 construct: whole, on cells; also called human DLL4 antigen
Method: Specifically, human embryonic kidney cells (HEK 293) that stably express human DLL4 were prepared, and the degree of binding of the anti-DLL4 antibodies to DLL4 was measured using the prepared cells and a FACSCalibur system (BD Biosciences). The HEK293 cells that stably expressed DLL4 were dissociated, washed with PBS, adjusted to a cell number of 1×10⁵ cells/200 μl PBS, treated with 10 μg of each of the DLL4 monoclonal antibodies, and then allowed to react at room temperature for 30 minutes. After the reaction, the cells were washed with PBS and reacted with an FITC-labeled Fc-specific antibody (goat anti-human IgG FITC conjugate, Fc specific, Sigma, F9512; concentration: 2.0 mg/ml) at a concentration of 5 μl/1×10⁵ cells/200 μl PBS at 4° C. for 1 hours. After the reaction, the cells were washed with PBS and analyzed using a FACSCalibur system. A control group was treated only with an FITC-labeled Fc-specific antibody. The results of analysis of human DLL4-minoclonal antibody-FITC binding in the test group treated with each of the DLL4 monoclonal antibodies were compared with those in the control group.

[2] = molecular target: T2, human DLL4 extracellular domain protein, His-tagged (R&D System Cat: 1506-D4/CF) (human, UniProt Q9NR61 27-522); test: SPR (Biacore T200), hDLL4 immobilized on CM5 chip, antibody as analyte, 1:1 model
T2 construct: range 27-522; Bought protein; also called hDLL4-His; human DLL4-His; not shown: C-terminal histidine tag
Method: (§1) To be specific, Biacore T200 was used in SPR analysis and HBS-EP (10 mM HEPES, pH7.4, 150 mM NaCl, 3 mM EDTA, 0.15% surfactant P20) was used as a running buffer. Surface preparation was done by using a surface preparation target immobilization tool of a wizard program (condition: 25° C., 5 μl/min). A ligand, hDLL4, was diluted in 10 mM sodium acetate (pH 4.5) to a final concentration of 10 μg/ml, and then immobilized to the surface of CM5 chip by a target immobilization level for each test group. In the immobilization process, two flow cells were included as one set wherein the first flow cell was set as a blank and the second flow cell has hDLL4 immobilized to the surface thereof in the present experiment. The first flow cell acted as a reference to account for experimental variability due to nonspecific bindings and buffer effects, and in the analysis, subtracted RU values (Fc2-Fc1) were used as experimental results. Anti-DLL4 antibodies that bind to hDLL4, i.e., MLCK1, MLCK2, MLCK-3, and MLCK4, were diluted in a running buffer to a final molar concentration of 100 nM, serially diluted 5 times, and each of the 5 dilutions was analyzed. The sample to be analyzed was prepared to have high purity and high concentration, enough to be diluted more than 100 times at minimum, thereby minimizing buffer effect. All analysis was done by using a wizard program, screening duplicates for each sample and a regeneration step was included in between each analysis step, so that the standard of experiment remains constant. The experimental results were analyzed by Biaevaluation software version 4.0. At this time, to determine the RU values (Fc2-Fc1 and Fc4-Fc3), the baseline was set to zero, the value measured at a buffer injection part (analyte, 0 nM) was subtracted from a whole sensorgram. Then, the resulting RU value was analyzed by a 1:1 binding model to determine a binding affinity. The factors to be analyzed include kₐ(M⁻¹s⁻¹), kd(s⁻¹), Kₐ(1/M), and KD(M). […] Equilibrium dissociation constant KD(M) was calculated by dividing kd with kₐ (kd/kₐ).

[3] = molecular target: T2, human DLL4 extracellular domain …; test: SPR (Biacore T200), hDLL4 immobilised on a CM5 chip, antibody as analyte; the table says 'Bivalent binding'
Method: as §1, with “Then, the resulting RU value was analyzed by a 1:1 binding model to determine a binding affinity.” left out

[4] = molecular target: T2, human DLL4 extracellular domain …; test: ELISA solution competition: antibody premixed with DLL4-His; blocks binding to plate-coated hNotch-1-hFc
Method: Each well of a 96-well microtiter plate (Nunc-Immuno Plate, NUNC, Rochester, N.Y.) was coated with 100 μl of 500 ng/ml of hNotch-1-hFc protein (R&D Systems) (diluted in PBS) at 4° C. overnight, and non-specific binding sites were blocked with BSA for 2 hours.
The anti-DLL4 antibody (purified protein) on the 96-well microtiter plate was premixed with serial dilutions of antigen protein (DLL4 antigen, 600 ng/m) at an antibody concentration ranging from 0 nM to 140 nM. The antigen/antibody mixture was incubated for 30 minutes, and then transferred to a microtiter plate precoated with the DLL4 receptor hNotch-1 protein (50 ng/well) in order to measure free antibody. Then, the plate was incubated for 2 hours and washed five times with 0.05% tween 20-containing PBS. In order to detect the DLL4 antigen bound to the plate, an HRP-conjugated His anti-mouse IgG polyclonal antibody reagent (Roche applied science) was diluted at a ratio of 1:500, and the washed microtiter plate was treated with the diluted antibody reagent, and then allowed to react at 37° C. for 1 hour. Then, color development was performed using a colorimetric substrate (3,3′,5,5′-tetramethylbenzidine; Sigma-Aldrich Co.), and the enzymatic reaction was stopped using 0.5 mol/l of sulfuric acid. The amounts of antibodies required to achieve a 50% decrease in human DLL4-His bound to plate-coated Notch 1-Fc (IC₅₀) are shown in Table 1 below.

[5] = molecular target: T2, human DLL4 extracellular domain …; test: ELISA, plate coated with hDLL4-His 2 ug/ml, bound antibody detected with HRP-conjugated anti-Fab
Method: The anti-DLL4 antibody-antigen binding affinity was evaluated using an ELISA-based binding test. A 96-well microtiter plate (Nunc-Immuno Plate, NUNC, Rochester, N.Y.) was coated with 2 μg/ml of hDLL4-His protein in PBS solution at 4° C. overnight, and non-specific binding sites were blocked with BSA (bovine serum albumin) for 2 hours. The anti-DLL4 antibody (purified protein) on the 96-well microtiter plate was transferred to a microtiter plate at an antibody concentration ranging from 0 nM to 128 nM. Then, the plate was incubated for 2 hours, after which the plate was washed five times with 0.05% tween 20-containing PBS, and in order to detect the plate-bound DLL4 antibody, an HRP-conjugated Fab polyclonal antibody reagent (Pierce) was diluted at a ratio of 1:10,000, transferred to the washed microtiter plate, and then allowed to react at 37° C. for 1 hour. After the reaction, color development was performed using a colorimetric substrate (3,3′,5,5′-tetramethylbenzidine; Sigma-Aldrich Co.). The enzymatic reaction was stopped using 0.5 mol/l of sulfuric acid, and the absorbance at 450 nm-650 nm was recorded using a microplate reader (molecular device). As a result, it was shown that the binding affinities of the antibodies for DLL4 increased in a concentration-dependent manner (FIG. 2).

T2 sequence (Q9NR61 27-522 limits assumed): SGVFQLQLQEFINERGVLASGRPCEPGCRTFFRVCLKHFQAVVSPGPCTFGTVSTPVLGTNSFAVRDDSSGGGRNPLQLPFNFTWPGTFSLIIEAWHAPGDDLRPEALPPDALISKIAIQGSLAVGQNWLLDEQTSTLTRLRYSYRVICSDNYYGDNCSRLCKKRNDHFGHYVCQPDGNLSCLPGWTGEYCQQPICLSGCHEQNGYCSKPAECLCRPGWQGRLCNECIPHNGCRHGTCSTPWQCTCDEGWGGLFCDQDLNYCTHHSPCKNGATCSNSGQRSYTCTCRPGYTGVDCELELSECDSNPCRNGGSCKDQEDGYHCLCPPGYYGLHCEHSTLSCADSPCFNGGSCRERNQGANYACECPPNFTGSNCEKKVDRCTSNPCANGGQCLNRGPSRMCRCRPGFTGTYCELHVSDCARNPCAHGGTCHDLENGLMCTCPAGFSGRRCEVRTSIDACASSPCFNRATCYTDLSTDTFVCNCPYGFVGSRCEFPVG
T1 sequence (Q9NR61 27-685): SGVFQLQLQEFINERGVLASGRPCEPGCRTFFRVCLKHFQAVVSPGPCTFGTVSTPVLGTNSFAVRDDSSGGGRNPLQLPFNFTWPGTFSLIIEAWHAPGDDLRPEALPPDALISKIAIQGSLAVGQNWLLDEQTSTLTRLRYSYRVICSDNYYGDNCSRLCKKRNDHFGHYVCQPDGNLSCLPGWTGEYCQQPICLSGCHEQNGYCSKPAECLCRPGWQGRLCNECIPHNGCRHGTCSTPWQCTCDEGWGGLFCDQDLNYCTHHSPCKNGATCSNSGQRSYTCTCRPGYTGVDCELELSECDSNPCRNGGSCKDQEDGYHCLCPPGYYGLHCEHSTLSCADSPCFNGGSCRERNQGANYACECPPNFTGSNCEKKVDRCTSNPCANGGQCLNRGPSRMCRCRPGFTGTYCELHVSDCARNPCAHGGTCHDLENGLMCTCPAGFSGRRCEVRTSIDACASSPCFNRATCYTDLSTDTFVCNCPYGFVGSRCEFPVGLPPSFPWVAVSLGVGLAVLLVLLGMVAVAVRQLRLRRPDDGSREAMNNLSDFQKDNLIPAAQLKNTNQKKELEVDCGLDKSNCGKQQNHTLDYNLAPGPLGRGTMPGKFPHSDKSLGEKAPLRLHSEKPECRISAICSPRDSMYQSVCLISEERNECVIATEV

| Binder | degree of binding to DLL4 antigen compared to the control group [1] | Kd [2] | Ka [3] | koff [3] | kon [3] | IC50 [4] | EC50 (read off the curve) [5] |
| --- | --- | --- | --- | --- | --- | --- | --- |
| MLCK-4 (antibody, V domains shown, Human monoclonal antibody from a phage scFv library; Only the variable regions are tied to the clone; In flow cytometry it was detected with an anti-human IgG Fc-specific antibody, so it carries a human Fc; also called anti-DLL4 antibody) VH: EVQLLESGGGLVQPGGSLRLSCAASGFTFSNYAMSWVRQAPGKGLEWVSWIYHGGGDTYYADSVKGRFTISRDNSKNTLYLQMNSLRAEDTAVYYCARGPNYTFGKPFDYWGQGTLVTVSS VL: QSVLTQPPSASGTPGQRVTISCRGSPSNIGNNTVYWYQQLPGTAPKLLIYSDSQRPSGVPDRFSGSKSGTSASLAISGLRSEDEADYYCGSWDYSLSAYVFGGGTKLTVL | 52.5% | 2130 nM | 469000 M⁻¹ | 0.00474 s⁻¹ | 2220 M⁻¹ s⁻¹ | 3.72 nM | ~0.2 pM |
| MLCK-1 (antibody, V domains shown, Human monoclonal antibody from a phage scFv library; Only the variable regions are tied to the clone; In flow cytometry it was detected with an anti-human IgG Fc-specific antibody, so it carries a human Fc; also called anti-DLL4 antibody) VH: EVQLLESGGGLVQPGGSLRLSCAASGFTFSDYAMSWVRQAPGKGLEWVSWIYSDDGNKYYADSVKGRFTISRDNSKNTLYLQMNSLRAEDTAVYYCARADPPFDYWGQGTLVTVSS VL: QSVLTQPPSASGTPGQRVTISCTGSSSNIGSNNVSWYQQLPGTAPKLLIYSDNNRPSGVPDRFSGSKSGTSASLAISGLRSEDEADYYCATWDSSLNGYVFGGGTKLTVL | 47.8% | 263 nM | 3.8e+06 M⁻¹ | 0.0169 s⁻¹ | 64100 M⁻¹ s⁻¹ | 1.32 nM | ~0.1 pM |
| MLCK-3 (antibody, V domains shown, Human monoclonal antibody from a phage scFv library; Only the variable regions are tied to the clone; In flow cytometry it was detected with an anti-human IgG Fc-specific antibody, so it carries a human Fc; also called anti-DLL4 antibody) VH: EVQLLESGGGLVQPGGSLRLSCAASGFTFSDYAMSWVRQAPGKGLEWVSWIYYDSGSKYYADSVKGRFTISRDNSKNTLYLQMNSLRAEDTAVYYCARADLPFDYWGQGTLVTVSS VL: QSVLTQPPSASGTPGQRVTISCSGSSSNIGNNAVTWYQQLPGTAPKLLIYSDNHRPSGVPDRFSGSKSGTSASLAISGLRSEDEADYYCGTWDASLSGYVFGGGTKLTVL | 52.9% | 6.96 nM | 1.44e+08 M⁻¹ | 0.00359 s⁻¹ | 516000 M⁻¹ s⁻¹ | 0.38 nM | ~0.05 pM |
| MLCK-2 (antibody, V domains shown, Human monoclonal antibody from a phage scFv library; Only the variable regions are tied to the clone; In flow cytometry it was detected with an anti-human IgG Fc-specific antibody, so it carries a human Fc; also called MLCK-2 mAb; anti-DLL4 antibody) VH: EVQLLESGGGLVQPGGSLRLSCAASGFTFSDYAMSWVRQAPGKGLEWVSWIYSGSGNKYYADSVKGRFTISRDNSKNTLYLQMNSLRAEDTAVYYCARADWPFDYWGQGTLVTVSS VL: QSVLTQPPSASGTPGQRVTISCTGSSSNIGSNDVTWYQQLPGTAPKLLIYADSKRPSGVPDRFSGSKSGTSASLAISGLRSEDEADYYCGTWDYSLSAYVFGGGTKLTVL | 59% | 1.71 nM | 5.86e+08 M⁻¹ | 0.000232 s⁻¹ | 136000 M⁻¹ s⁻¹ | 0.41 nM | ~0.04 pM |
